Laboratory results taken from patent publication US20240116985A1 (published 2024).
Starred links: 1 amine or outer side, 2 acyl side, 3 side chain; linkers in the order of their positions; H or OH if unused. Positions of bridges follow the written chain, without caps; N, C: chain ends. Non-standard residues stand in square brackets, D forms with d. Primed or numbered codes have the meaning given here. PyrS(3) = (S)-1-((allyloxy)carbonyl)-3-aminopyrrolidine-3-carboxylic acid, stapling residue, C=CCOC(=O)N1CC[C@@](N[*:1])(C(=O)[*:2])C1; PyrS″ = (S)-1-((allyloxy)carbonyl)-3-aminopyrrolidine-3-carboxylic acid (stapling residue), C=CCOC(=O)N1CC[C@@](N[*:1])(C(=O)[*:2])C1; PyrS = (S)-1-((allyloxy)carbonyl)-3-aminopyrrolidine-3-carboxylic acid, C=CCOC(=O)N1CC[C@@](N[*:1])(C(=O)[*:2])C1; Phe(3-CONH2) = NC(=O)c1cccc(C[C@H](N)C(=O)O)c1; Phe(4-CONH2) = NC(=O)c1ccc(C[C@H](N)C(=O)O)cc1; Phe(4-COOH) = N[C@@H](Cc1ccc(C(=O)O)cc1)C(=O)O; Phe(2-CONH2) = NC(=O)c1ccccc1C[C@H](N)C(=O)O; Phe(3-OMe) = COc1cccc(C[C@H](N)C(=O)O)c1; 2Nal = N[C@@H](Cc1ccc2ccccc2c1)C(=O)O; Ala(cPent) = N[C@@H](CC1CCCC1)C(=O)O; hPhe = N[C@@H](CCc1ccccc1)C(=O)O; 2Pal = N[C@@H](Cc1ccccn1)C(=O)O; 3Pal = N[C@@H](Cc1cccnc1)C(=O)O; 4Pal = N[C@@H](Cc1ccncc1)C(=O)O; R8 = C=CCCCCCC[C@@](C)(N)C(=O)O

T1: full-length beta-Catenin (Uniprot ID P35222) (Homo sapiens (Human), UniProt P35222 2-781)
T1 construct: also called B-Catenin; bCat
T1 sequence: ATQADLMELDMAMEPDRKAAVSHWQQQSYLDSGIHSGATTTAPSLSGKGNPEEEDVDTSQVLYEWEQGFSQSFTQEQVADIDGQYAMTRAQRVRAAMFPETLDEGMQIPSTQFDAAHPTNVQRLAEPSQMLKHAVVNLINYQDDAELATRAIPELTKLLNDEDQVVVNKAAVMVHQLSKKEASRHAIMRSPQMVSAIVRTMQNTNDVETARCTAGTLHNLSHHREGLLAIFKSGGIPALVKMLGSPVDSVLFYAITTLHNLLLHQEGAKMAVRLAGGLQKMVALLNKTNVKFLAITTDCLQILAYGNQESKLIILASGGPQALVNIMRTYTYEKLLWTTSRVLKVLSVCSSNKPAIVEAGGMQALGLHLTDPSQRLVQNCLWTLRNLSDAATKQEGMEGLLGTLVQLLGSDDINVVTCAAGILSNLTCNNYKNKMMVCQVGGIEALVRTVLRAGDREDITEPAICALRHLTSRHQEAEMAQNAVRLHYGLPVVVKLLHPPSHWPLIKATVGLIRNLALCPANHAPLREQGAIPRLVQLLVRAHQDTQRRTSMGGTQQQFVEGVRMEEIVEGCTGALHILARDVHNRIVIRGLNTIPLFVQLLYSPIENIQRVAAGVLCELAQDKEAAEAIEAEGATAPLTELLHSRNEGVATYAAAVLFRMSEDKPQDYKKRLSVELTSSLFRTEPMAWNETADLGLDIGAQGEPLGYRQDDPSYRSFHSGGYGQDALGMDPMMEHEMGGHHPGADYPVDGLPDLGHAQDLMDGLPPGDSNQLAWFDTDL

T2: full-length beta-Catenin (Uniprot ID P35222) (Homo sapiens (Human), UniProt P35222 2-781)
T2 construct: Used full-length in both the FP and the AlphaScreen assay; also called B-Catenin; bCat
T2 sequence: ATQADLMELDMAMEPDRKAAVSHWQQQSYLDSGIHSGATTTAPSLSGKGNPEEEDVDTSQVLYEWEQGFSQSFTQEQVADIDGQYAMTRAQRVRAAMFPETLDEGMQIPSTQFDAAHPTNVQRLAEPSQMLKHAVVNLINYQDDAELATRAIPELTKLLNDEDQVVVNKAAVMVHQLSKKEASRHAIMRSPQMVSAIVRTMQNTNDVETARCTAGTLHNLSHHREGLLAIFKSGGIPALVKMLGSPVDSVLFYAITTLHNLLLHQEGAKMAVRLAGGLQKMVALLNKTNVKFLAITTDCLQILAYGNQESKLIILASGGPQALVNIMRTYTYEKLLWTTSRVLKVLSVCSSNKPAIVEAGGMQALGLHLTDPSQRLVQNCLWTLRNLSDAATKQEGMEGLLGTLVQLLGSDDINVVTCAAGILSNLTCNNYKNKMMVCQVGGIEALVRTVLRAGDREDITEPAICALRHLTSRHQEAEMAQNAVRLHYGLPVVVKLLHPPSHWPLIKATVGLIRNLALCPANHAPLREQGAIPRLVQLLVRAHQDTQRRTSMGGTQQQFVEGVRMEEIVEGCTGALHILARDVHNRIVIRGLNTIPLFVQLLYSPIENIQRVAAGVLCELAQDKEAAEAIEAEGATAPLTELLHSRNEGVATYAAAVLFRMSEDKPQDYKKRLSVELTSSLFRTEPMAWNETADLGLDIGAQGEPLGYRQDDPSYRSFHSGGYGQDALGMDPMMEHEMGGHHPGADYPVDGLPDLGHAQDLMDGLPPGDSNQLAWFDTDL


biological target: T1, full-length beta-Catenin (Uniprot ID …); test: Alphascreen competition; biotin-TCF4(10-53) probe with full-length beta-catenin
Method: (§1) Equal volume of the titrated peptide was added to the plate and incubated for 15 minutes at 20° C. Then 4 uL of donor and 4 uL acceptor beads at 10 ug/mL were added to the plate, for a 16 uL reaction pool and protected from light for 60 minutes at 20° C. prior to read. Reads were performed on a CLARIOstar plate reader (BMG Labtech) in duplicate, and data were fitted to a 1:1 binding model with hill slope using an in-house script. All provided concentrations are final concentrations.

| Binder | EC50 [µM] |
| --- | --- |
| Ac-FDA[R8]DDAA[2Nal]V[PyrS″]FWQ-NH2 (staple 4-11, Stapled peptide composition) [I-113] | 6.2 |
| Ac-FDA[R8]DDAA[Phe(4-CONH2)]V[PyrS″]FWQ-NH2 (staple 4-11, Stapled peptide composition; same description as I-91, separate later-eluting HPLC peak (staple isomer)) [I-92] | 9.15 |
| Ac-FDA[R8]DDAA[Phe(3-CONH2)]V[PyrS″]FWQ-NH2 (staple 4-11; not fully specified; printed as Ac-Phe-Asp-Ala-R8-Asp-Asp-Ala-Ala-3CBMF-Val-PyrS-Phe-Trp-Gln-NH2, Stapled peptide composition) [I-109] | 8.82 |
| Ac-FDA[R8]DDAA[Phe(3-OMe)]V[PyrS″]FWQ-NH2 (staple 4-11; not fully specified; printed as Ac-Phe-Asp-Ala-R8-Asp-Asp-Ala-Ala-3OMeF-Val-PyrS-Phe-Trp-Gln-NH2, Stapled peptide composition) [I-103] | 4.95 |
| Ac-FDA[R8]DDAAFV[PyrS″][Phe(2-CONH2)]WQ-NH2 (staple 4-11; not fully specified; printed as Ac-Phe-Asp-Ala-R8-Asp-Asp-Ala-Ala-Phe-Val-PyrS-2CBMF-Trp-Gln-NH2, Stapled peptide composition) [I-105] | ≥ 10 |
| Ac-FDA[R8]DDAAFV[PyrS″][Ala(cPent)]WQ-NH2 (staple 4-11, Stapled peptide composition; same description as I-94, separate earlier-eluting HPLC peak (staple isomer)) [I-93] | ≥ 10 |
| Ac-FDA[R8]DDAA[Phe(3-OMe)]V[PyrS″]FWQ-NH2 (staple 4-11; not fully specified; printed as Ac-Phe-Asp-Ala-R8-Asp-Asp-Ala-Ala-3OMeF-Val-PyrS-Phe-Trp-Gln-NH2, Stapled peptide composition) [I-104] | 6.17 |
| Ac-FDA[R8]D[hPhe]AAFV[PyrS″]FWQ-NH2 (staple 4-11; not fully specified; printed as Ac-Phe-Asp-Ala-R8-Asp-hPhe-Ala-Ala-Phe-Val-PyrS-Phe-Trp-Gln-NH2, Stapled peptide composition; same description as I-97, separate later-eluting HPLC peak (staple isomer)) [I-98] | ≥ 10 |
| Ac-FDA[R8]DDAAFV[PyrS″][Phe(3-OMe)]WQ-NH2 (staple 4-11; not fully specified; printed as Ac-Phe-Asp-Ala-R8-Asp-Asp-Ala-Ala-Phe-Val-PyrS-3OMeF-Trp-Gln-NH2, Stapled peptide composition) [I-101] | ≥ 10 |
| Ac-FDA[R8]DDAAFV[PyrS″][Phe(3-CONH2)]WQ-NH2 (staple 4-11, Stapled peptide composition) [I-107] | ≥ 10 |
| Ac-FDA[R8]D[hPhe]AAFV[PyrS″]FWQ-NH2 (staple 4-11; not fully specified; printed as Ac-Phe-Asp-Ala-R8-Asp-hPhe-Ala-Ala-Phe-Val-PyrS-Phe-Trp-Gln-NH2, Stapled peptide composition; same description as I-98, separate earlier-eluting HPLC peak (staple isomer)) [I-97] | 7.01 |
| Ac-FDA[R8]DDAA[Phe(4-CONH2)]V[PyrS″]FWQ-NH2 (staple 4-11, Stapled peptide composition; same description as I-92, separate earlier-eluting HPLC peak (staple isomer)) [I-91] | 4.72 |
| Ac-FDA[R8]DFAAFV[PyrS″]FWQ-NH2 (staple 4-11, Stapled peptide composition; same description as I-99, separate later-eluting HPLC peak (staple isomer)) [I-100] | 9.23 |
| Ac-FDA[R8]DFAAFV[PyrS]FWQ-NH2 (staple 4-11; not fully specified; printed as Ac-Phe-Asp-Ala-R8-Asp-Phe-Ala-Ala-Phe-Val-PyrS-Phe-Trp-Gln-NH2, Stapled peptide composition; same description as I-100, separate earlier-eluting HPLC peak (staple isomer)) [I-99] | ≥ 10 |
| Ac-FDA[R8]DDAAFV[PyrS(3)]DWQ-NH2 (staple 4-11, Stapled peptide composition) [I-121] | 4.46 |
| Ac-FDA[R8]DDAAFV[PyrS″]DWQ-NH2 (staple 4-11; not fully specified; printed as Ac-Phe-Asp-Ala-R8-Asp-Asp-Ala-Ala-Phe-Val-PyrS-Asp-Trp-Gln-NH2, Stapled peptide composition) [I-122] | ≥ 10 |
| Ac-FDA[R8]DDAAFV[PyrS″][Phe(4-COOH)]WQ-NH2 (staple 4-11; not fully specified; printed as Ac-Phe-Asp-Ala-R8-Asp-Asp-Ala-Ala-Phe-Val-PyrS-4COOHF-Trp-Gln-NH2, Stapled peptide composition) [I-110] | 8.5 |
| Ac-FDA[R8]DDAAFV[PyrS][Ala(cPent)]WQ-NH2 (staple 4-11, Stapled peptide composition; same description as I-93, separate later-eluting HPLC peak (staple isomer)) [I-94] | 7.01 |
| Ac-FDA[R8]DDAAFV[PyrS][Phe(2-CONH2)]WQ-NH2 (staple 4-11; not fully specified; printed as Ac-Phe-Asp-Ala-R8-Asp-Asp-Ala-Ala-Phe-Val-PyrS-2CBMF-Trp-Gln-NH2, Stapled peptide composition) [I-106] | ≥ 10 |
| Ac-FDA[R8]DDAA[Ala(cPent)]V[PyrS]FWQ-NH2 (staple 4-11, Stapled peptide composition; same description as I-95, separate later-eluting HPLC peak (staple isomer)) [I-96] | ≥ 10 |
| Ac-FDA[R8]DDAA[Phe(3-CONH2)]V[PyrS″]FWQ-NH2 (staple 4-11; not fully specified; printed as Ac-Phe-Asp-Ala-R8-Asp-Asp-Ala-Ala-3CBMF-Val-PyrS-Phe-Trp-Gln-NH2, Stapled peptide composition) [I-108] | ≥ 10 |
| Ac-FDA[R8]DDAAFV[PyrS″][Phe(4-COOH)]WQ-NH2 (staple 4-11, Stapled peptide composition; same description as I-110, separate later-eluting HPLC peak (staple isomer)) [I-111] | 7.64 |
| Ac-FDA[R8]DDAA[Ala(cPent)]V[PyrS″]FWQ-NH2 (staple 4-11, Stapled peptide composition; same description as I-96, separate earlier-eluting HPLC peak (staple isomer)) [I-95] | 8.66 |
| Ac-FDA[R8]DDAAFV[PyrS″][Phe(3-OMe)]WQ-NH2 (staple 4-11; not fully specified; printed as Ac-Phe-Asp-Ala-R8-Asp-Asp-Ala-Ala-Phe-Val-PyrS-3OMeF-Trp-Gln-NH2, Stapled peptide composition) [I-102] | ≥ 10 |
| Ac-FDA[R8]DDAA[2Nal]V[PyrS″]FWQ-NH2 (staple 4-11, Stapled peptide composition) [I-112] | ≥ 10 |

biological target: T2, full-length beta-Catenin (Uniprot ID …); test: AlphaScreen competition; full-length beta-catenin, biotin-TCF4(10-53) probe
Method: as §1

| Binder | EC50 [µM] |
| --- | --- |
| Ac-FDA[R8]DDAAFV[PyrS][4Pal]WQ-NH2 (staple 4-11; not fully specified; printed as Ac-Phe-Asp-Ala-R8-Asp-Asp-Ala-Ala-Phe-Val-PyrS-4PyrA-Trp-Gln-NH2, Stapled peptide; also called Ac-Phe-Asp-Ala-R8-Asp-Asp-Ala-Ala-Phe-Val-PyrS-4PyrA-Trp-Gln-NH2) [I-85] | ≥ 10 |
| Ac-FDA[R8]DDAA[2Pal]V[PyrS]FWQ-NH2 (staple 4-11, Stapled peptide; also called Ac-Phe-Asp-Ala-R8-Asp-Asp-Ala-Ala-2PyrA-Val-PyrS-Phe-Trp-Gln-NH2) [I-86] | ≥ 10 |
| Ac-FDA[R8]DDAAFV[PyrS″][Phe(4-CONH2)]WQ-NH2 (staple 4-11; not fully specified; printed as Ac-Phe-Asp-Ala-R8-Asp-Asp-Ala-Ala-Phe-Val-PyrS-4CBMF-Trp-Gln-NH2, Stapled peptide; also called Ac-Phe-Asp-Ala-R8-Asp-Asp-Ala-Ala-Phe-Val-PyrS-4CBMF-Trp-Gln-NH2) [I-89] | 5.64 |
| Ac-FDA[R8]DDAA[3Pal]V[PyrS″]FWQ-NH2 (staple 4-11; not fully specified; printed as Ac-Phe-Asp-Ala-R8-Asp-Asp-Ala-Ala-3PyrA-Val-PyrS-Phe-Trp-Gln-NH2, Stapled peptide; also called Ac-Phe-Asp-Ala-R8-Asp-Asp-Ala-Ala-3PyrA-Val-PyrS-Phe-Trp-Gln-NH2) [I-88] | ≥ 10 |
| Ac-FDA[R8]DDAA[3Pal]V[PyrS″]FWQ-NH2 (staple 4-11; not fully specified; printed as Ac-Phe-Asp-Ala-R8-Asp-Asp-Ala-Ala-3PyrA-Val-PyrS-Phe-Trp-Gln-NH2, Stapled peptide; also called Ac-Phe-Asp-Ala-R8-Asp-Asp-Ala-Ala-3PyrA-Val-PyrS-Phe-Trp-Gln-NH2) [I-87] | ≥ 10 |
| Ac-FDA[R8]DDAAFV[PyrS″][Phe(4-CONH2)]WQ-NH2 (staple 4-11, Stapled peptide; also called Ac-Phe-Asp-Ala-R8-Asp-Asp-Ala-Ala-Phe-Val-PyrS-4CBMF-Trp-Gln-NH2) [I-90] | ≥ 10 |
